Measurements as given in patent US20090131317A1, “COMPOUNDS AND PEPTIDES THAT BIND THE TRAIL RECEPTOR” (AFFYMAX, INC., priority 2007, published 2009).
Where “and” joins values, the source holds several entries; their conditions need not be identical. Equal entries are not always repeated. Numbered stars: 1 amine (or outer) side, 2 acyl side, 3 side chain; on linkers, the order of the positions; unused ones are H or OH. Bridge positions count the residues as written; N and C are the ends. Peptide text beside a SMILES is read from it. I, II: the chains in the order shown. Diglycolyl = O=C(COCC(=O)[*:2])[*:1]; DIG = diglycolic acid linker

biological target: T1, human TRAIL R2 (Homo sapiens, UniProt O14763); assay: AlphaQuest TRAIL R2 receptor binding competition assay (AlphaScreen, biotinylated TRAIL ligand vs TRAIL R2-Fc); conditions: competition with biotinylated TRAIL ligand; single values and ranges over assays; read-out: binding activity (IC50)
T1 construct: purchased R&D Systems, Minneapolis, Minn
Excerpt: Laser excitation (680 nm) of a photosensitizer in the donor bead generates singlet state oxygen molecules, which react with a chemiluminescer in the acceptor bead to generate a detectable light signal (520-620 nm). Because the singlet O2 molecules have an extremely short half-life (i.e., t ½), a signal is generated only when the donor and acceptor beads are brought into close proximity, by TRAIL binding to the R2 receptor. The presence of unlabeled test peptide that competes with TRAIL for binding to the R2 receptor will prevent this binding, resulting in a measurable decrease in light emission.
Recombinant human TRAIL R2-Fc fusion protein (R&D Systems, Minneapolis, Minn.) is diluted in AlphaQuest® buffer to a concentration of 600 pM, pre-mixed with 1.9 μL Protein A-coated acceptor beads and 1.9 μL streptavidin-coated donor beads (Perkin-Elmer®, Waltham, Mass.), then 2 μL is added to each well of the assay plate. […] The plates are sealed with adhesive sealing film and covered with aluminum foil, centrifuged at 600 rpm for 30 seconds and incubated overnight in the dark. […] The raw data are analyzed using GraphPad Prism® software (La Jolla, Calif.) to calculate IC50 values from a 4-parameter logistic equation.

Molecule	IC50
CC[C@H](C)[C@@H]1NC(=O)[C@H](CCCNC(=N)N)NC(=O)[C@H](CC(N)=O)NC(=O)[C@H](CC(=O)O)NC(=O)[C@H](CC(C)C)NC(=O)[C@@H](NC(=O)[C@H](CC(=O)O)NC(=O)[C@H](Cc2c[nH]c3ccccc23)NC(C)=O)CSSC[C@@H](C(=O)N[C@H](C(=O)N[C@@H](CCCNC(=N)N)C(N)=O)C(C)C)NC(=O)[C@H](CCC(N)=O)NC(=O)[C@H](CCCNC(=N)N)NC(=O)[C@H](CCCCN)NC(=O)CNC1=O [SEQ ID NO: 33 monomer] (Ac-WDCLDNRIGKRQCVR-NH2; disulfide 3-13)	200 to 5700 nM
CC[C@H](C)[C@@H]1NC(=O)[C@H](CCCNC(=N)N)NC(=O)[C@H](CC(N)=O)NC(=O)[C@H](CC(=O)O)NC(=O)[C@H](CC(C)C)NC(=O)[C@@H](NC(=O)[C@H](CC(=O)O)NC(=O)[C@H](Cc2c[nH]c3ccccc23)NC(C)=O)CSSC[C@@H](C(=O)N[C@H](C(=O)N[C@@H](CCCNC(=N)N)C(N)=O)C(C)C)NC(=O)[C@H](CCC(N)=O)NC(=O)[C@H](CCCNC(=N)N)NC(=O)[C@H](CCCCNC(=O)COCC(=O)NCCCC[C@@H]2NC(=O)CNC(=O)[C@H]([C@@H](C)CC)NC(=O)[C@H](CCCNC(=N)N)NC(=O)[C@H](CC(N)=O)NC(=O)[C@H](CC(=O)O)NC(=O)[C@H](CC(C)C)NC(=O)[C@@H](NC(=O)[C@H](CC(=O)O)NC(=O)[C@H](Cc3c[nH]c4ccccc34)NC(C)=O)CSSC[C@@H](C(=O)N[C@H](C(=O)N[C@@H](CCCNC(=N)N)C(N)=O)C(C)C)NC(=O)[C@H](CCC(N)=O)NC(=O)[C@H](CCCNC(=N)N)NC2=O)NC(=O)CNC1=O [SEQ ID NO: 33 homodimer] (I: Ac-WDCLDNRIGKRQCVR-NH2 / II: Ac-WDCLDNRIGKRQCVR-NH2; disulfide I:3-I:13, II:3-II:13; linker I:10-II:10 via Diglycolyl)	0.025 to 0.092 nM and ~0.061 nM

biological target: TRAIL R2 receptor on HCT-116 or Jurkat cells (UniProt O14763 56-440, limits assumed); assay: cell-based or functional assay; conditions: not given

Molecule	EC50, Jurkat proliferation assay (apoptosis, MTT) [nM]	EC50, apoptotic activity in HCT-116 proliferation assay (MTT) [nM]
Ac-WDCLDNRIGRRQCVKL-NH2 (disulfide 3-13; also: homodimer via DOD linker, site not given here) [peptide homodimer based on the peptide monomer amino acid sequence of SEQ ID NO: 19, DOD linker]	2000 to 4410	–
Ac-WDCLVDRPGRRQCVRLEK-NH2 (disulfide 3-13 (inferred); also: homodimer via diglycolic acid (DIG) linker, site not given here) [peptide homodimer based on the peptide monomer amino acid sequence of SEQ ID NO: 29, DIG linker]	1300 to 1660	–
Ac-WDCLVDRPGRRQCVRLERK-NH2 (disulfide 3-13 (inferred); also: homodimer via diglycolic acid (DIG) linker, site not given here) [peptide homodimer based on the peptide monomer amino acid sequence of SEQ ID NO: 30, DIG linker]	611 to 1090	–
Ac-WDCLDNRIGRRQCVK(DIG)L-NH2 (disulfide 3-13; also: homodimer joined through DIG linker) [peptide homodimer based on the monomer amino acid sequence of SEQ ID NO: 19, DIG linker]	–	~1620
Ac-WDCLDNRIGRRQCVKL-NH2 (disulfide 3-13; also: homotrimer via TSAT linker, site not given here) [peptide homotrimer based on the peptide monomer sequence of SEQ ID NO: 19, TSAT linker]	–	~480
Ac-WDCLDNRIGRRQCVKL-NH2 (disulfide 3-13; also: homodimer via IPA linker, site not given here) [peptide homodimer based on the peptide monomer amino acid sequence of SEQ ID NO: 19, IPA linker]	1400 to 4020	–
Ac-WDCLVDRPGRRQCVKLER-NH2 (disulfide 3-13 (inferred); also: homodimer via diglycolic acid (DIG) linker, site not given here) [peptide homodimer based on the peptide monomer amino acid sequence of SEQ ID NO: 31, DIG linker]	> 33000	–
